This is an account of results in paper PMC9490328, “Characterization and structure of the human lysine-2-oxoglutarate reductase domain, a novel therapeutic target for treatment of glutaric aciduria type 1” (Open Biology, 2022).

Data set [1] deals with T1, 2-aminoadipic semialdehyde synthase (AASS), lysine-2-oxoglutarate reductase (LOR) domain (Homo sapiens, UniProt Q9UDR5).
T1 construct: recombinant LOR domain (amino acids 21-470)
T1 sequence (Q9UDR5 21-470): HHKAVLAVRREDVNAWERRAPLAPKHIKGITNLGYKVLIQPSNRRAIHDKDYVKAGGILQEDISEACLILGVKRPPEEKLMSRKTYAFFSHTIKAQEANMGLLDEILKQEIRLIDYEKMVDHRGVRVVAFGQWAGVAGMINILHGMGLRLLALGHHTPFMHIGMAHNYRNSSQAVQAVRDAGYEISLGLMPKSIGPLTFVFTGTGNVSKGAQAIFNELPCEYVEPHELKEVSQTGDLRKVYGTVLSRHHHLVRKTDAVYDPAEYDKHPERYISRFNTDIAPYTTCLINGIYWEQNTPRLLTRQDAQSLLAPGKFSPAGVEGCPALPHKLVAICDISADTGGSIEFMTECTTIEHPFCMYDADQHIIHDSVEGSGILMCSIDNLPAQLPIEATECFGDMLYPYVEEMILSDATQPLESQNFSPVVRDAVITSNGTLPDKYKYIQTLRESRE
The experiment in a line: spectrophotometric LOR enzyme assay ([…] nm, NADPH consumption). It counts as biochemical.

For data set [2], the target named is T2, 2-aminoadipic semialdehyde synthase (AASS), lysine-2-oxoglutarate reductase (LOR) domain (Homo sapiens, UniProt Q9UDR5).
T2 construct: LOR short construct (amino acids 21-451)
T2 sequence (Q9UDR5 21-451): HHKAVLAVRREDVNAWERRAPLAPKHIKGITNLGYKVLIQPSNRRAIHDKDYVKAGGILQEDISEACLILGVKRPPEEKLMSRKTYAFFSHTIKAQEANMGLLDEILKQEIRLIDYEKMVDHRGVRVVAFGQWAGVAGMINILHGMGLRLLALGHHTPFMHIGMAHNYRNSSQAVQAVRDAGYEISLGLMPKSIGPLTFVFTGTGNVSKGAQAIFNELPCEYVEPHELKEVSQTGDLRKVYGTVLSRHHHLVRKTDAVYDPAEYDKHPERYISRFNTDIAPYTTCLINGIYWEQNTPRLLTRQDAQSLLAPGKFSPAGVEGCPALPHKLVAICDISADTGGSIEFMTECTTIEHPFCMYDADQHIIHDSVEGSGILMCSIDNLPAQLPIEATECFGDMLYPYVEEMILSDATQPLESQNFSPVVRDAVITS
Briefly: X-ray crystal structure of NEM-alkylated LOR; also activation in enzyme assay and immunoblot with anti-NEM antibody. It is filed as binding. Background: In western blotting, separated proteins are transferred to a membrane and probed.

Substrate in data set [3]: NCCCC[C@H](N)C(=O)O
Briefly: steady-state kinetics, forward reaction (Km). To be noted: NADPH; pH 8.8. It is filed as biochemical, Homo sapiens.

Substrate in data set [4]: NC(=O)c1ccc[n+]([C@@H]2O[C@H](COP(=O)(O)OP(=O)(O)OC[C@H]3O[C@@H](n4cnc5c(N)ncnc54)[C@H](OP(=O)(O)O)[C@@H]3O)[C@@H](O)[C@H]2O)c1
Briefly: purified protein. To be noted: pH 8.8; varied: cofactor.

Substrate in data set [5]: NC(=O)C1=CN([C@@H]2O[C@H](COP(=O)(O)OP(=O)(O)OC[C@H]3O[C@@H](n4cnc5c(N)ncnc54)[C@H](OP(=O)(O)O)[C@@H]3O)[C@@H](O)[C@H]2O)C=CC1
The experiment in a line: purified protein. To be noted: predicted: Ser […] and Arg […] interact with the additional phosphate of NADPH; pH 8.8; varied: cofactor.

Substrate in data set [6]: O=C(O)CCC(=O)C(=O)O
The experiment in a line: purified protein. As to conditions: NADPH; pH 8.8.

Substrate in data set [7]: N[C@@H](CCCCN[C@@H](CCC(=O)O)C(=O)O)C(=O)O
Briefly: steady-state kinetics, reverse reaction (Km); also inhibits the forward LOR reaction in AASS-Myc-DDK lysates. It is filed as biochemical, Homo sapiens. As to conditions: NADP+ consistent with its ability to compete with lysine and 2-oxoglutarate; pH 8.8.

As usually defined, the IC50 is the concentration that inhibits the measured activity by half. A high value points to lower potency. The term Km denotes the substrate concentration at which the rate is half of its maximum. As usually defined, the Vmax is the rate approached at saturating substrate.

For `NC[C@@H]1CCCN1C(=O)c1ccc2c(c1)CCC(=O)N2` [S-105], in data set [1], inhibition was half-maximal at 142 µM (IC50).

In the case of `CCN1C(=O)C=CC1=O` [NEM, N-ethylmaleimide], the “X-ray crystal structure of NEM-alkylated LOR; also activation in enzyme assay an” value in data set [2] is given as “crystal structure of NEM-alkylated LOR short construct (PDB 8E8V)”.

B1: 2-aminoadipic semialdehyde synthase (AASS), lysine-2-oxoglutarate reductase (LOR) domain (Homo sapiens) (protein)
chain: HHKAVLAVRREDVNAWERRAPLAPKHIKGITNLGYKVLIQPSNRRAIHDKDYVKAGGILQEDISEACLILGVKRPPEEKLMSRKTYAFFSHTIKAQEANMGLLDEILKQEIRLIDYEKMVDHRGVRVVAFGQWAGVAGMINILHGMGLRLLALGHHTPFMHIGMAHNYRNSSQAVQAVRDAGYEISLGLMPKSIGPLTFVFTGTGNVSKGAQAIFNELPCEYVEPHELKEVSQTGDLRKVYGTVLSRHHHLVRKTDAVYDPAEYDKHPERYISRFNTDIAPYTTCLINGIYWEQNTPRLLTRQDAQSLLAPGKFSPAGVEGCPALPHKLVAICDISADTGGSIEFMTECTTIEHPFCMYDADQHIIHDSVEGSGILMCSIDNLPAQLPIEATECFGDMLYPYVEEMILSDATQPLESQNFSPVVRDAVITSNGTLPDKYKYIQTLRESRE
notes: isolated LOR (amino acids 21-470)
With B1, the Km in data set [3] is 24000 ± 2000 µM; in the data set “purified protein [4]”, 420 ± 10 µM; in “purified protein [5]”, 390 ± 20 µM; in “purified protein [6]”, 1400 ± 100 µM; in data set [7], 1700 ± 100 µM. Besides, the Vmax in data set [3] was 28.8 µmol/min/mg; in the data set “purified protein [4]” it was 525 µmol/min/mg; in the data set “purified protein [5]”, 65.4 µmol/min/mg; in the data set “purified protein [6]”, 57.2 µmol/min/mg; in data set [7] it was 443 µmol/min/mg.
